# Results from publication PMC3848040.
# Substrate: Nc1ncnc2c1ncn2[C@@H]1O[C@H](COP(=O)(O)OP(=O)(O)OP(=O)(O)O)[C@@H](O)[C@H]1O
# Test: purified protein
# Conditions: phosphate donor; activity depends on divalent ions
protein,measurement,value
SGK196dTM (Homo sapiens) (protein) APRQSTVDPTHCPYGHFRIGQMKNCSPWLSCEELRTEVRQLKRVGEGAVKRVFLSEWKEHKVALSQLTSLEMKDDFLHGLQMLKSLQGTHVVTLLGYCEDDNTMLTEYHPLGSLSNLEETLNLSKYQNVNTWQHRLELAMDYVSIINYLHHSPVGTRVMCDSNDLPKTLSQYLLTSNFSILANDLDALPLVNHSSGMLVKCGHRELHGDFVAPEQLWPYGEDVPFHDDLMPSYDEKIDIWKIPDISSFLLGHIEGSDMVRFHLFDIHKACKSQTPSERPTAQDVLETYQKVLDTLRDAMMSQAREML,Km,4.1 ± 1.4 µM
